# Data from the RNAGym collection of RNA variant scans (doi:10.7554/elife.90254).
# B1: OR4K15 (parent)
# chain: GUUAACGGUCAUAGGCCAUGGAAACUAGGAGCACCAUUUCGCUGCCAGUGAAGAAAUGAACAAAGAAAAUCUGGGCCAGGCAGGCAUCAAAAGAAAUAGUCUUGCGCUCAACCAGAAAGUCUGUAAUCAUUUUAAGGGUA
# Variants of: B1
# Assay: self-cleavage, relative activity (ratio to wild type); higher = more cleavage; in vitro, sequencing; the parent is a self-cleaving ribozyme
row,Variant,self-cleavage
1,A68U A114U,0.06
2,U49C A118U,0.62
3,U3G U26C,0.94
4,U2C A18U,0.37
5,A55G U127A,1.65
6,U19C A22U,1.23
7,G28U U100A,0.25
8,C40U A67G,0.82
9,G14U A33U,1.38
10,A62C U72C,0.26
11,A18U A94U,1.11
12,A116U,0.23
13,C46A A118U,0.26
14,U38C A78U,0.35
15,A68U G106A,0
16,A66G A110U,0.78
17,C34U U139A,1.61
18,A89U A129G,1.59
19,U12A A54U,1.28
20,C61U A91U,1.73
21,U43C U70C,0.83
22,U102C C107G,0.01
23,U120C A125G,0.43
24,A47U U97A,1.74

row,Variant,self-cleavage
1,A116C,0.13
2,U3G U9A,0.99
3,G7A A92G,1.8
4,A30U A86G,1.87
5,A51U U132C,1.06
6,A56U A126G,1.34
7,A11U A140U,1.3
8,U127C U139C,0.89
9,U12C A96G,1.02
10,A55U A96C,0.74
11,U3C A36U,1.33
12,U3C A60C,0.91
13,A78C A91C,0.19
14,A86G U122A,1.61
15,A5G U19A,0.53
16,A51U A64G,1.28
17,A5C C105U,0.08
18,A23G C61G,1.12
19,C25A A36G,1.03
20,A24G A60U,1.08
21,A89C,1.54
22,A92G U130C,0.3
23,U2C A30U,0.98
24,C32G,1.25

row,Variant,self-cleavage
1,A5C C17U,0.39
2,A22G U37G,0.8
3,U9C U131C,1.7
4,U2G A89G,0.3
5,A59G U131A,1.54
6,A5U U72A,0.62
7,C17U G83A,1.07
8,U43C A114U,0.05
9,G73A A118G,0.14
10,U57C U87C,0.63
11,U37G A62G,1.44
12,A91C A114G,0.64
13,C34U,1.35
14,G73U U108C,0.02
15,A5U U43G,1.19
16,C17U U38C,1.28
17,A22G C81U,0.53
18,A51U A110G,0.23
19,A89G A96G,0.83
20,U38C C77U,2.04
21,U100A U139A,1.29
22,A52G U57A,1.31
23,U127A,1.6
24,A68U U103C,1.42

row,Variant,self-cleavage
1,U57A A90G,0.76
2,G48U U102C,1.31
3,U2C G83A,0.87
4,A67U A69G,1.13
5,U9C C45U,1.07
6,A64G A90U,1.58
7,A5U A96G,1.12
8,G14A A22G,0.51
9,A64U A135G,1.22
10,A82U A92G,0.22
11,U19A U124C,0.9
12,U97C A118G,0.77
13,A33G U102G,0.47
14,A64U A118G,1.42
15,A60U G106C,0
16,U3A A60U,1.71
17,A95C U103C,1.28
18,A22G A69C,0.68
19,A54G A91G,1.18
20,U3C C71A,0.16
21,U49C U87A,2.09
22,A94U A135U,1.75
23,A111G U120C,0.01
24,A55G C77U,1.41

row,Variant,self-cleavage
1,A66G C105A,0.05
2,G75U A126G,0.08
3,A89G U97A,0.88
4,U26A G44C,0.71
5,U49A U108A,0.02
6,G28U A134C,2.09
7,U57C C105U,0.15
8,A11G C17A,0.61
9,U43C U70G,1.28
10,U102C U132A,2.37
11,A91G A114U,0.03
12,A118G A126G,0.83
13,U3A U37C,0.99
14,U49A U122C,0.56
15,A114C U124C,0.03
16,A64U U131C,1.58
17,G7U A114G,0.16
18,A96U A135U,0.78
19,A78G A126C,0.09
20,G48A A82U,0.12
21,G106A U108C,0
22,U12C A90U,0.94
23,U132C A134G,1.05
24,C112G A135U,0.01

row,Variant,self-cleavage
1,A30G U100C,1.93
2,U26C A69G,1.46
3,U39C A118G,1.71
4,U57G A62G,0.83
5,A36U A90G,1.74
6,C6U A94G,1.68
7,A23G A129G,0.35
8,G7A A114U,0.06
9,A51C U124C,0.98
10,A24C A56G,2.01
11,U12C U57C,1.27
12,U39C C61U,2.41
13,G15C U49C,1.78
14,A125C A126G,0.12
15,U19C U102G,0.78
16,U49C U103A,0.71
17,A68G U103G,0.04
18,A118G U139G,0.07
19,C32U A78U,0.38
20,A98G A110G,0.06
21,A18U C113A,0.05
22,G53U A114U,0.19
23,G74A A140U,0.22
24,A30G G44A,1.15

row,Variant,self-cleavage
1,U70G A94G,1.61
2,A60G A66U,1.26
3,G7A A64G,1.18
4,G21A A33U,2.16
5,A5C A18G,1.02
6,C25U A63G,0.37
7,A86C U108A,0.16
8,G41A,1.67
9,G8A C77U,1.72
10,A27G U139A,1.27
11,A82U G138A,0.17
12,A47U U100C,2.2
13,A67G A69U,1.32
14,U26A A92G,0.89
15,U39C U127C,1.18
16,G79U U87C,0.11
17,U19A A117U,0.55
18,A98G G138U,0.6
19,A30G A56G,1.27
20,U2A U43C,0.84
21,U9G U57A,0.51
22,A78G U130A,0.17
23,A91U U100A,0.57
